Results as given in publication PMC2879331 (Clinical cancer research : an official journal of the …, 2008).

Molecular target: the molecule itself
Assay: non-reducing SDS-PAGE

B1: matrix metalloprotease 9 (MMP-9) (enzyme)
chain: not shown
  stoichiometry N: 2
